Tests used:
[1] = target: T1, FRHSVV peptide, common epitope of mutant p53 (biotinylated) (human); experiment: BIAcore (SPR), data not shown
[2] = target: T1, FRHSVV peptide, common epitope of …; experiment: BIAcore (SPR), biotinylated peptide on streptavidin SA chip, scFv injected, 1:1 Langmuir model

B1: A6 scFv (scFv)
scFv: VQLLESGGGLVQPGGSPRLSCAASGFTFSGYWMHWVRQAPGKGLEWVSEISGSGDSTHYGDSVKGRFTISRDNSKNTLYLQMNSLRAEDTAVYYCARGRNGSLDYWGQGTLVTVSSGSAGGGGSGGGGSGGGGSDIVLTQPPSASGTPGQRVTISCTGGRFNIGDYAVNWYQQLPGKAPKLLIYDNDRRPSGVSDRFSGSKSGTSASLAISGLRSEDEADYYCAAWDDSLDGLVFGGGTQLTV
Kd [1]: 23 nM

B2: F2 scFv (scFv)
scFv: VQLLESGGGLVQPGGSLRLSCAASGFTFSGYWMHWVRQAPGKGLEWVSEISGSGDSTHYGDSVKGRFTISRDNSKNTLYLQMNSLRAEDTAVYYCARGRNGSLDYWGQGTLVTVSSGSAGGGGSGGGGSGGGGSDIVLTQPPSASGTPGQRVTISCSGTSSNIGADYDVHWYQQLPGKAPKLLIYDNNKRPSGVSDRFSGSKSGTSASLAISGLRSEDEADYYCAAWDSSLSSVVFGGGTQLTV
Kd [2]: 11 nM
